Data as given in paper PMC8624084, “Persulfidation of Nitrate Reductase 2 Is Involved in L-Cysteine Desulfhydrase-Regulated Rice Drought Tolerance” (International Journal of Molecular Sciences, 2021).

Tests used:
Type in all cases: biochemical, Oryza sativa
[1] = substrate: S; assay: OAS-TL activity assay, Lineweaver-Burk; details: OAS-TL (cysteine synthase) side reaction; co-substrate OAS
[2] = substrate: CC(=O)OC[C@H](N)C(=O)O; assay: OAS-TL activity assay, Lineweaver-Burk; details: OAS-TL (cysteine synthase) side reaction; co-substrate Na2S
purified protein = substrate: N[C@@H](CS)C(=O)O; assay: purified protein; details: L-cysteine desulfhydrase (CDes) reaction, method section: 100 mM Tris/HCl pH 8.5, 2.5 mM DTT, 37 °C

B1: OsLCD1 (Oryza sativa Japonica Group) (protein)
chain: MASIPPDDDAAAAAAAGAAENGYGNGKGNGNGPAPRPPPAKRPRSVISAAQIRAEFEHHEAGVARVNNGSFGCCPSSLLDAQARWQRLFIAQPDDFYFHALQPGLRRSRAAVAGLVNAGDVAEVSLVDNATTAAAIVLQHAAWSFAEGRFSRGDAVLMLHYAYGAVKKSIHAYVARAGATVVEVPLPFPVASADAIIAEFRAALDVAKAGGRKVRLAVIDHITSMPSVVIPVKELVAICREEGVDKVFIDAAHSIGQVPVDVRDIGADFYTSNLHKWFFCPPAVAFLHTRKDDPIASQLHHPVVSHEYGNGLPMESGWIGTRDYSAQLVVPESIDFVNRFEGGIEGIRSRNHEKVIEMGKMLAEAWGTFLGTPPELCGSMVMVGLPGCLGVESDDDVMRMRTMLRKDFMVEVPIYYNSRRVEAQEMAKDKNGDAVTGYVRISHQVYNVTEDYEKLRDAVNKLVADGFTSSKLRPSQKQETMA
notes: full length, 482 residues, 55 kDa, N-terminal 6xHis tag (pET-28a(+)), E. coli Rosetta (DE3), Ni-NTA purified
B1 gave a Km [1] of 8.13 ± 0.72 mM, a Km [2] of 3.76 ± 0.41 mM and a Km (purified protein) of 0.15 ± 0.02 mM.
